Results on four molecules are retold here after patent US20050226876A1 (Hoffmann-La Roche, published 2005).

The experiment has as its target T1, Recombinant P-selectin (R&D Systems) (human, UniProt P16109 42-771).
T1 construct: extracellular domain; also called recombinant human P-selectin; recombinant truncated form of P-selectin
T1 sequence (looked up): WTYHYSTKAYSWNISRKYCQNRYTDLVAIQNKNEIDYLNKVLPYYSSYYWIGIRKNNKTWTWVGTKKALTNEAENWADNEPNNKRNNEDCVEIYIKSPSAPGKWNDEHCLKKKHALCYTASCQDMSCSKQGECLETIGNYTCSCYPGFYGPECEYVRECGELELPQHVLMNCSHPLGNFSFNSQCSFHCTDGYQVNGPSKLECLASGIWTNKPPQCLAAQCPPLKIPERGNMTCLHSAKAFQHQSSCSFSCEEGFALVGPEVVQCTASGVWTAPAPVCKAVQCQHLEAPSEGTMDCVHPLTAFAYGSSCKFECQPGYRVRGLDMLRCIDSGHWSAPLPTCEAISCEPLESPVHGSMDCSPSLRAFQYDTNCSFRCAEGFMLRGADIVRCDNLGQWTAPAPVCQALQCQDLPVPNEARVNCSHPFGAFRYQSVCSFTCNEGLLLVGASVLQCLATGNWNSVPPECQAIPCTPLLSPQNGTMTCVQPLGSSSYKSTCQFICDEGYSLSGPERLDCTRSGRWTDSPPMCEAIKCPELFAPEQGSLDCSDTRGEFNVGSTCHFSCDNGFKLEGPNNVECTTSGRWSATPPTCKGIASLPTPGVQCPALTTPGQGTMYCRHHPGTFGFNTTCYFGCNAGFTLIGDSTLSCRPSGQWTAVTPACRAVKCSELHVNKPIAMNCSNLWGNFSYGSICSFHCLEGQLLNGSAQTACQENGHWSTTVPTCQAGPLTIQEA
Nature of the experiment: SPR, BIACORE 2000; antibody captured by anti-human Fcγ, recombinant P-selectin 0-50 nM injected; 1:1 Langmuir fit. As for the experimental part:
Recombinant P-selectin (R&D Systems) was added in various concentrations between 0-50 nM. Association was measured by P-selectin-injection for 120 seconds; dissociation was measured by washing the chip surface with buffer for 180 seconds. Using Biaevaluation Software the kinetic data were fitted to a 1:1 Langmuir binding model of P-selectin to the presented monoclonal antibody.

B1: HuMab 017 (antibody of cell line hu-Mab<P-selectin>LC 1004-017, DSM ACC2642) (antibody, V domains shown)
VH: QPQLVQSGAEVKKPGASVKVSCKVSGNTLTELSMHWVRQAPGKGLEWMGGFDPENGEAIYAQKFQGRVTMTADTSTDTAYMDLSSLRSEDTAVYYCATDLAGGSDFYYYGLDVWGQGTTVTVSS
VL: AIQLTQSPSSLSASVGDRVTITCRASQGISSALAWYQQKPGKAPKLLIYDASSLESGVPSRFSGSGSGTDFTLTISSLQPEDFATYYCQQFNSYPYTFGQGTKLEIK
notes: Human monoclonal antibody; also called antibody 017
Take B1: the Ka turned out to be 5.59e+10 M⁻¹, the Kd stood at 0.0179 nM, the koff is 1.39e-05 s⁻¹ and the kon turned out to be 779000 M⁻¹ s⁻¹.

B2: HuMab 003 (antibody, V domains shown)
VH: QVQLVESGGGVVQPGRSLRLSCAASGFTFSSYGMHWVRQAPGEGLEWVAVIWYDGTFKYYADSVKGRFTISRDNSKNTLSLLMNSLRAEDTAVYYCTRGGYYGSGSSFDYYYYGMDVWGQGTTVTVSS
VL: DIQMTQSPSSLSASVGDRVTITCRASQGISSWLAWYQQKPEKAPKSLIYAASSLQSGVPSRFSGSGSGTDFTLTISSLQPEDFATYYCQQYHSYPLTFGGGTKVEIK
notes: Human monoclonal antibody; also called antibody 003; LC 1004-003
In the case of B2, the Ka was found to be 2.27e+09 M⁻¹, the Kd was found to be 0.441 nM, the koff worked out at 0.000291 s⁻¹ and the on-rate constant (kon) turned out to be 660000 M⁻¹ s⁻¹.

B3: HuMab 005 (antibody, V domains shown)
VH: B2 VH
VL: EIVLTQSPATLSLSPGERATLSCRASQSVSSYLAWYQQKPGQAPRLLIYDASNRATGIPARFSGSGSGTDFTLTISSLEPEDFAVYYCQQRSNWPPVTFGQGTRLEIK
notes: Human monoclonal antibody; also called antibody 005
Consider B3, for which the Ka is 2.91e+09 M⁻¹, the dissociation constant (Kd) is 0.343 nM, the koff is 0.000289 s⁻¹ and the kon amounted to 842000 M⁻¹ s⁻¹.

B4: HuMab 001 (antibody of cell line hu-Mab<P-selectin>LC 1004-001, DSM ACC2640) (antibody, V domains shown)
VH: EVQLVESGGGLVQPGGSLRLSCAASGFTFSSYDMHWVRQATGKGLEWVSGITTAGDTYYPGSVKGRFTISRENAKNSLYLQMNSLRAGDTAVYYCARGRISMDRGVKNNWFDPWGQGTLVTVSS
VL: EIVLTQSPATLSLSPGERATLSCRASQSVSSYLAWYQQKPGQAPRLLIYDASNRATGIPARFSGSGSGTDFTLTISSLEPEDFAVYYCQQRNNWPLTFGGGTKVEIK
notes: Human monoclonal antibody from transgenic mice; kappa light and gamma1 heavy chains by the cloning section; also called antibody 001; HuMab 1004-001
For the molecule B4, the Ka came out at 1.45e+09 M⁻¹, the Kd worked out at 0.689 nM, the koff was 0.000419 s⁻¹ and the kon is 608000 M⁻¹ s⁻¹.
